B1: CPEB3 Ribozyme (parent)
chain: UAACAGGGGGCCACAGCAGAAGCGUUCACGUCGCAGCCCCUGUCAGAUUCUGGUGAAUCUGCGAAUUCUGCUGUAUAUCUC

Variants of: B1
Experiment: self-cleavage, relative activity (ratio to wild type); higher = more cleavage; in vitro, sequencing
Outline: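 CPEB3 self-cleaving ribozyme mutant libraries were made by rounds of error-prone PCR, barcoded, and transcribed in vitro with T7 RNA polymerase for 5 hours at 37°C. Cleavage occurred during transcription and a 15 min DNase I step before EDTA stop. RNAs were reverse transcribed with template switching and Illumina-sequenced, with DNA sequencing mapping barcodes to variants. Relative activity is the variant's cleaved/total read fraction divided by wild type's (minimum 5 reads), averaged across three batches.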

Going from G6A C40U to G6A C44U, the self-cleavage rises from 0.33 to 0.46.

Going from G6A C59A to G6A C62A, the self-cleavage rises from 0.15 to 0.16.

Compared with G6A C62G, G6A C62U is lower in self-cleavage: 0.42 for the first, 0.25 for the second.

Compared with G6A C79A, G6A C79U is higher in self-cleavage: 0.38 for the first, 0.55 for the second.

Going from G6A C81U to G6A G7A, the self-cleavage falls from 0.73 to 0.09.

Compared with G6A G7U, G6A G9A is higher in self-cleavage: 0.07 for the first, 0.25 for the second.

Going from G6A G9C to G6A G10A, the self-cleavage rises from 0.07 to 0.41.

First: G6A G10C
Second: G6A G16A
The self-cleavage of the first is lower: 0.23 for the first, 0.29 for the second.

First: G6A G19A
Second: G6A G19C
The self-cleavage of the first is lower: 0.26 for the first, 0.42 for the second.

Compared with G6A G19U, G6A G24A is higher in self-cleavage: 0.06 for the first, 0.34 for the second.

First: G6A G24U
Second: G6A G30A
The self-cleavage of the first is higher: 0.23 for the first, 0.19 for the second.

First: G6A G33A
Second: G6A G33U
The self-cleavage of the first is higher: 0.29 for the first, 0.22 for the second.

Compared with G6A G36A, G6A G42A is lower in self-cleavage: 0.19 for the first, 0.15 for the second.

Going from G6A G46U to G6A G53A, the self-cleavage rises from 0.32 to 0.34.

Going from G6A G53C to G6A G55U, the self-cleavage falls from 0.43 to 0.4.

G6A G61A and G6A G63A are the same in self-cleavage: 0.34 for the first, 0.34 for the second.

Going from G6A G73U to G6A U25C, the self-cleavage falls from 0.89 to 0.27.

Compared with G6A U25G, G6A U26A is lower in self-cleavage: 0.47 for the first, 0.19 for the second.

Compared with G6A U26C, G6A U31A is higher in self-cleavage: 0.2 for the first, 0.21 for the second.

First: G6A U31C
Second: G6A U41A
The self-cleavage of the first is higher: 0.34 for the first, 0.26 for the second.

Going from G6A U41C to G6A U41G, the self-cleavage falls from 0.31 to 0.18.

First: G6A U43A
Second: G6A U43C
The self-cleavage of the first is higher: 0.49 for the first, 0.19 for the second.

First: G6A U48C
Second: G6A U49A
The self-cleavage of the first is higher: 0.18 for the first, 0.08 for the second.

First: G6A U49C
Second: G6A U51A
The self-cleavage of the first is lower: 0.15 for the first, 0.37 for the second.

Going from G6A U51C to G6A U54A, the self-cleavage falls from 0.49 to 0.27.

Going from G6A U54C to G6A U54G, the self-cleavage falls from 0.52 to 0.19.

First: G6A U58A
Second: G6A U58C
The self-cleavage of the first is higher: 0.27 for the first, 0.14 for the second.

Compared with G6A U58G, G6A U60A is higher in self-cleavage: 0.29 for the first, 0.33 for the second.

Compared with G6A U60C, G6A U66C is higher in self-cleavage: 0.27 for the first, 0.29 for the second.

Going from G6A U67A to G6A U67C, the self-cleavage falls from 0.4 to 0.32.

Going from G6A U69A to G6A U69C, the self-cleavage falls from 0.32 to 0.15.

Going from G6A U69G to G6A U72A, the self-cleavage falls from 0.27 to 0.2.

Compared with G6A U72C, G6A U72G is lower in self-cleavage: 0.4 for the first, 0.27 for the second.

Going from G6A U74C to G6A U76C, the self-cleavage falls from 0.54 to 0.27.

Compared with G6A U76G, G6A U78A is lower in self-cleavage: 0.14 for the first, 0.11 for the second.

Going from G6A U78C to G6A U80A, the self-cleavage rises from 0.24 to 0.53.

Compared with G6A U80C, G6C is lower in self-cleavage: 0.45 for the first, 0.36 for the second.

Going from G6C A18U to G6C A20G, the self-cleavage rises from 0.07 to 0.44.

Going from G6C A21G to G6C A21U, the self-cleavage falls from 0.56 to 0.39.

First: G6C A35U
Second: G6C A45U
The self-cleavage of the first is lower: 0.3 for the first, 0.32 for the second.

Going from G6C A57G to G6C A65G, the self-cleavage falls from 0.5 to 0.46.

Going from G6C C27U to G6C C38A, the self-cleavage rises from 0.33 to 0.43.

First: G6C C62U
Second: G6C C71A
The self-cleavage of the first is lower: 0.2 for the first, 0.21 for the second.

Going from G6C G19A to G6C G19U, the self-cleavage falls from 0.48 to 0.2.

First: G6C G42A
Second: G6C G53A
The self-cleavage of the first is lower: 0.31 for the first, 0.59 for the second.

Going from G6C U25A to G6C U26A, the self-cleavage falls from 0.5 to 0.47.

Compared with G6C U31A, G6C U31C is higher in self-cleavage: 0.16 for the first, 0.45 for the second.

Compared with G6C U41C, G6C U48C is lower in self-cleavage: 0.49 for the first, 0.47 for the second.

Compared with G6C U51A, G6C U54C is higher in self-cleavage: 0.38 for the first, 0.52 for the second.

Compared with G6C U58A, G6C U67C is higher in self-cleavage: 0.21 for the first, 0.3 for the second.

Compared with G6C U69C, G6C U72A is lower in self-cleavage: 0.21 for the first, 0.18 for the second.

First: G6C U74C
Second: G6C U78C
The self-cleavage of the first is higher: 0.67 for the first, 0.48 for the second.

Going from G6U to G6U A13U, the self-cleavage falls from 0.35 to 0.18.

Compared with G6U A15C, G6U A15U is higher in self-cleavage: 0.19 for the first, 0.41 for the second.

Compared with G6U A18C, G6U A18U is lower in self-cleavage: 0.14 for the first, 0.12 for the second.

First: G6U A20G
Second: G6U A20U
The self-cleavage of the first is lower: 0.26 for the first, 0.34 for the second.

First: G6U A21C
Second: G6U A21G
The self-cleavage of the first is lower: 0.17 for the first, 0.29 for the second.

First: G6U A28G
Second: G6U A35G
The self-cleavage of the first is lower: 0.38 for the first, 0.41 for the second.

First: G6U A35U
Second: G6U A45G
The self-cleavage of the first is higher: 0.36 for the first, 0.11 for the second.

Going from G6U A45U to G6U A47G, the self-cleavage rises from 0.19 to 0.36.

Compared with G6U A47U, G6U A56G is higher in self-cleavage: 0.17 for the first, 0.41 for the second.

First: G6U A56U
Second: G6U A57G
The self-cleavage of the first is lower: 0.22 for the first, 0.43 for the second.

First: G6U A64G
Second: G6U A64U
The self-cleavage of the first is higher: 0.32 for the first, 0.07 for the second.

First: G6U A65U
Second: G6U A75G
The self-cleavage of the first is higher: 0.23 for the first, 0.09 for the second.

G6U A77U and G6U C11A are the same in self-cleavage: 0.16 for the first, 0.16 for the second.

Compared with G6U C12U, G6U C23U is higher in self-cleavage: 0.19 for the first, 0.25 for the second.

Compared with G6U C29U, G6U C32U is lower in self-cleavage: 0.25 for the first, 0.08 for the second.

Compared with G6U C59U, G6U C62G is higher in self-cleavage: 0.09 for the first, 0.25 for the second.

Compared with G6U C71A, G6U C79A is higher in self-cleavage: 0.16 for the first, 0.46 for the second.

Compared with G6U G7A, G6U G8A is lower in self-cleavage: 0.33 for the first, 0.23 for the second.

Compared with G6U G9A, G6U G10A is lower in self-cleavage: 0.4 for the first, 0.34 for the second.

Going from G6U G16C to G6U G52A, the self-cleavage rises from 0.19 to 0.47.

Compared with G6U G73A, G6U U25C is lower in self-cleavage: 0.57 for the first, 0.37 for the second.

First: G6U U26A
Second: G6U U26C
The self-cleavage of the first is lower: 0.13 for the first, 0.38 for the second.

Going from G6U U31A to G6U U31C, the self-cleavage rises from 0.17 to 0.22.

Going from G6U U41A to G6U U43C, the self-cleavage falls from 0.35 to 0.32.

Going from G6U U48A to G6U U48C, the self-cleavage falls from 0.16 to 0.13.

Going from G6U U49A to G6U U49C, the self-cleavage falls from 0.38 to 0.22.

Going from G6U U51C to G6U U58C, the self-cleavage falls from 0.36 to 0.16.

Going from G6U U60A to G6U U60C, the self-cleavage falls from 0.49 to 0.24.

First: G6U U66A
Second: G6U U66C
The self-cleavage of the first is lower: 0.13 for the first, 0.2 for the second.

Going from G6U U67A to G6U U67C, the self-cleavage rises from 0.09 to 0.11.

First: G6U U69C
Second: G6U U72C
The self-cleavage of the first is lower: 0.22 for the first, 0.37 for the second.

Variant G6U U74G has a self-cleavage of 0.4.

Reference: the RNAGym collection of RNA variant scans (doi:10.1093/nar/gkz1192)
